From PMC9388150 (Proceedings of the National Academy of Sciences of the …, 2022) come the findings set out here.

Data set [1] concerns the target full-length TtKin5 kinesin-2 (T. thermophila) (UniProt Q7YUC7).
Data set [2] concerns the target CeOSM-3^G444E (C. elegans) (UniProt P46873).
Data set [3] deals with the molecule itself. Kind of data set: SEC-MALS. (SEC sorts molecules by how far they enter the pores of the column.)

Sequence of CeOSM-3^G444E (C. elegans) (P46873 whole entry G444E): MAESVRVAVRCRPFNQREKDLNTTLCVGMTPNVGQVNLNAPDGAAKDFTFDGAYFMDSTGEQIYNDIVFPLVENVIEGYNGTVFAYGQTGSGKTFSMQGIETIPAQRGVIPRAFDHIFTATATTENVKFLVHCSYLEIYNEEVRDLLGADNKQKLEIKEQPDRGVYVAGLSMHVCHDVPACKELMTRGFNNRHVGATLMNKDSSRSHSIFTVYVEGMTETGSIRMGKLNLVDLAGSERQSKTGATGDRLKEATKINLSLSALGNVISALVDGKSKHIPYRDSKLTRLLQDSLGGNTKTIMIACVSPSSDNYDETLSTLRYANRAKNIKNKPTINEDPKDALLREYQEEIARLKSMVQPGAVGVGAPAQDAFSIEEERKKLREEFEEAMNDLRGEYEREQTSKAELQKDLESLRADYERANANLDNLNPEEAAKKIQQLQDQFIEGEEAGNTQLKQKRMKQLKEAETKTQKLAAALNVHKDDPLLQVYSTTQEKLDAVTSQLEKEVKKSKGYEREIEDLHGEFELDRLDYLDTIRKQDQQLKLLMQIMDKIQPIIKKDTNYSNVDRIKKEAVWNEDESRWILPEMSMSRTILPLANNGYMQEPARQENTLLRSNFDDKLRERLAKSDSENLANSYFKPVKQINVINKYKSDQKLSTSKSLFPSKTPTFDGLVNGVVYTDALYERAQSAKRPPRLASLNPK

In data set [1], TtIFT70/52 adaptor complex displayed a velocity of TtKin5 with TtIFT70/52 in single-molecule transport assays of 2 µm/s.
In data set [1], TtIFT70 (natural protein) came in with a velocity of TtKin5 with TtIFT70 in single-molecule transport assays of 1.5 µm/s.
With “CeIFT70/52 adaptor complex (from UniProt Q8I7G4 1-656)”, the velocity of CeOSM-3^G444E with CeIFT70/52 in single-molecule transport assays in data set [2] amounted to 1.7 µm/s.

B1: full-length TtKin5 kinesin-2 (natural protein, T. thermophila, UniProt Q7YUC7 1-836, looked up)
chain: MSSETVKVMVRARPMNKLEISKGCANIVQVDPQTNQIILSNGKDAEAAKVFTYDYVFPPDIQQQTVYENSAFPLVESVVEGYNGTIFAYGQTGCGKTHSMLGKPNDEVEKGIIPRTFSHIINIVESANDKNFLVRCSYIEIYNEEIHDLLGKDAKARMDLKEYPDKGVFVKDLTMNVVKTVAEMEKWMNIGTENRSVGATAMNKDSSRSHSIFTLYIECSYKVEGDTEDHITAGKLNLVDLAGSERQSKTQATGDRLKEATKINLSLSALGNVISALVDGKSQHVPYRDSKLTRLLQDSLGGNTKTIMIAAISPADYNYEETLSTLRYASRAKNIKNQPKVNQDPKDALLKEYADEIKKLKEMLLKQQAGEQVNFNAVVNGNGQQQPQLAIQHSSSHVMNSSEVKKLKEKNDALNAERQQIEEEVKNKEKLFQQQMQEKLMIEQKLKEVEQKFIVGGTADQDKKKKISQMRNKLKKQMQEHEKIQEELKQKDEEFENLEIKYSSLQEELDATKKKVKKLNQKYKQAQSEIKDLEKEHEIQKEDLLDTIRYQQREVKILMSICQMLLTPDEIEIIKGQGEWQDDYQVYKLPPFYFKQKKLNFPKLPAAQAMDMIDQEKQSREIDFMRQNNNFDNRQNNNHQNGNSHSHSNSIKRIPSGTMDNFEDMNKFQFGNGPAKSNNTSRYNNGFQNGSDEFDLSKYDAGGGNSLHSIQESLKEKNNSPNIRIKKAHKVQQQPEKQRIPNVSLDPIESQRISQQKLMGLQDSHFLEPSFQGGEQRRSKNIQLQPIQARPLSNSQTVMNLNQLNKNNINMNSIDFDQIANKTPNRVKLDKIQVPR
On to B1, for which the stoichiometry N (usually a count of units in the complex or per binding partner) in data set [3] was 2.
